# Results: the nanobody polyreactivity screen of Harvey et al. (2022)
# Test: yeast display, Sf9 membrane polyspecificity reagent, FACS + sequencing; frameworks hold sequencing errors
# Summary of the method: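 A synthetic nanobody library was expressed on Saccharomyces cerevisiae BJ5465 by galactose induction for 36–48 hours. The library was stained for 1 hour at 4 °C with 10% biotinylated, detergent-solubilized Sf9 membrane reagent and enriched with streptavidin microbeads before FACS. Low and high (top ~1%) gates were set on anti-HA fluorescence for expression and streptavidin fluorescence for reagent binding, and each polyreactivity label reflects the gate of origin.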
row,Sequence,polyreactivity (PSR sort gate)
1,QVQLVESGGGLVQAGGSLRLTCAASGFIFVTDAMGWYRQAPGKERELVAAITNSGGTTYYADSVKGRFTISRDNAKNTVYLQMNSLKPEDPAVYYCNKQWYTATYRESYYWGQGTQVTVSS,low polyreactivity
2,QVQLVESGGGLVQAGGSLRLTCAASGFTFAGYAMGWYRQGPGKERELVAVITSSDSTYYADSVKGRFTISRDNAKNTVYLQMNSLKPEDTAVYYCNAADERSQGWVGYDHWGQCTQVTVSS,low polyreactivity
3,QVQLVESGGGLVQAGGSLRLTCAASGFTFDTYAMGWYRQAPGKEREFVATISRNSGSTYYADSVKGRFTIARDNAKNTVYLQMNSLKPEDTAVYYCNRRRYGRKSDRMNYWGQGTQVTVSS,high polyreactivity
4,QVQLVESGGGLVQAGGSLRLTCAASGFTFRKNVMGWYRQAPGKERELVAFISSSGGSTYYADSVKGRFTISRDNEKNTGYIPMNSLKPEETAVYYCNAGRYGSNLEYWGQATQVTVSS,low polyreactivity
5,QVQLVESGGGLVQAGGSLRLTCAASGFTFYGYAMGRYRQAPGKERELVAAISSSGTSTYSGDSVKGRFTISRDNAKNTVYLQMNSLKPEDTAVYYCAKDFYRRFYSWGQGTQVTLSS,high polyreactivity
6,QVQLVESGGGLVQAGGSLRLTCAASGFTINFYAMGGYRQAPGKERELVAAITASGGGSTYYADSVKGRFTISRDNAKNTVYLQMNSLKPEDTAVYYCNADYTGSFYTYDYWGQGTQVTVSS,low polyreactivity
7,QVQLVESGGGLVQAGGSLRLTCAASGFTVHNKVMGWYRQAPGKERELVATISKSGGSTYYADSVKGRFTISRDNAKNTVYLEMNSLKPVDTAVYYCARRYGDYGRYGYWGQGTQVTVSS,high polyreactivity
8,QVQLVESGGGLVQAGGSLRLTCAASGFTYTINGMGWYRQAPGKERELVAAINWRGGSTYYADSVKGRFTISRDNAKNTVYLQMNSLKPEDTAVYYCYAVAYIYSYAYPPYWGREHLNYWGQGTQVTVSS,low polyreactivity
9,QVQLVESGGGLVQAGGSLRLTCAASGGIFTDYTMGWYRQAPGKERELVSAITWTGGSTYYADSVKGRFTISRDNAKNTVYLQMNSLKPEDTAVYYCYVVKYVYIYSYWEYYFWGQGTQVTVSS,low polyreactivity
10,QVQLVESGGGLVQAGGSLRLTCAASGGTFGSYAMGWYRPAPGKERELVAVISSGGSTYYADSVKGRFTISRDNAKNTVYLQMNSLKPEDTAVYYCARRTRTTRGKNGYWGQGTKVTVSS,high polyreactivity
11,QVQLVESGGGLVQAGGSLRLTCAASGGTFYANAMGWYRQAPGTERELVAAITSGGSTNYADSVKGRFTISRDNAKNTVYLQMNSLKPEDTAVYYCNAAAQRRYWHSYFRRYDYWGQGTQVTVSS,low polyreactivity
12,QVQLVESGGGLVQAGGSLRLTCAASGHIFFYYTMGWYRQAPGKERELVARISSDGDTYYADSVKGRFTISRDNAKNTVYLQMNSLKPEDTAVYYCAAAVLYWVGYGYWGQGTQVTVSS,low polyreactivity
13,QVQLVESGGGLVQAGGSLRLTCAASGIIFGENARGWYRQAPGKERELVDAINSVGSTYYADSVKGRFTISRDNAKNTVYLQMNSLKPEDTAVYYCAAESWFLRWYRYDYWGQGTQVTVSS,low polyreactivity
14,QVQLVESGGGLVQAGGSLRLTCAASGIIFGKYTMGWYRPAPGKERELVADISKRGGSTYYADSVKGRFTISRDHAKNTVYLQMNSLKPEDTAVYNCAAERISSYDYWGQGTQVTVSS,high polyreactivity
15,QVQLVESGGGLVQAGGSLRLTCAASGIIFYGYAMGCYRQAPGKERELVADISFSGGRTYYSDSVKGRFTISRDNAKNTVYLQMNRLKQEDTAVYYCAKRRFYRTSQYVKYDYWGQGTQVTVSS,low polyreactivity
16,QVQLVESGGGLVQAGGSLRLTCAASGITFKFYAMGWYRQAPGKESELVAAITSGGGSTYYADSVKGRFTISRDNAKNTVYLQMNILKPEDTAVYYCNTYSIAYYSPCYDYWGQGTQVNVSS,high polyreactivity
17,QVQLVESGGGLVQAGGSLRLTCAASGITFYGNAMGWYRQAPGKERELVANTYYADSVKGRFTISRDNAKNTVYLQMNSLIAEDTAVYYCATRNARYRSQPPGYDYWGQGTQVTVSS,low polyreactivity
18,QVQLVESGGGLVQAGGSLRLTCAASGLIFPRYAMGWYRQAPGKERELVAAISRRGGSTRYADSVKGRFTISRDNAKNTVYLQMNSLKPEDTAVYYCAAPDFPKYYPTAYLQADEYWGQGTQVTVSS,high polyreactivity
19,QVQLVESGGGLVQAGGSLRLTCAASGLIFVAYAMGWYRQAPGKERELVAAISWSGGDTYYADSVKGRFTISRDNAKNTVYLQMNSLKPEDTAVYYCAADYYPYGYDSWGQGTQVTVSS,low polyreactivity
20,QVQLVESGGGLVQAGGSLRLTCAASGLILVPNTMGWYRQAPGTERELVAAISYSGGGTYYADSVKGRFTISRDNAKNTVYLQMNSLKPEDTAVYYCAAYVKRESAPYGYWGQGTQVTVSS,low polyreactivity
21,QVQLVESGGGLVQAGGSLRLTCAASGLTFERYAMGWYRQAPGKETELVAAISIRGGSTYYADSVKGRFTISRYNAKNTVYLQMNSLKPEVTAVYYCSADGRGREYDYWGQGTQVTVSS,low polyreactivity

row,Sequence,polyreactivity (PSR sort gate)
1,QVQLVESGGGLVQAGGSLRLTCAASGLTFYSNTMGWYIQAPGKERELVAAISWTGTSTYYADSVKVRFTISRDNAKNTVFLQMNSLKAEDTAVYYWNALGYARSYDSWGQGTQVTVSS,high polyreactivity
2,QVQLVESGGGLVQAGGSLRLTCAASGNIFGIYTMGWYRQAPGKEREFFAVISLSGTSTYYADSVKGRFTISRDNAKNTVYLQMKSLKPEDTAVYYCNARTPHNKGRRRAYDYWGQATQVTVSS,high polyreactivity
3,QVQLVESGGGLVQAGGSLRLTCAASGNTFFFNTMGWYRQAPGKERELVAVISSSGGTYYADSVKGRFTISRDNAKNTVYLQMNSLKQEDTAVYYCNADWHTHGYPTGKTGFKYYYWGQGTQVTVSS,low polyreactivity
4,QVQLVESGGGLVQAGGSLRLTCAASGNTFVGNAMGWYRQAPGKERELVAAISRRGGSTYYADSVKGRFTISRDYAKNTVYLQMNSLKPEDTAEYYCAVGWAGRYDYWGQGTQVTVSS,low polyreactivity
5,QVQLVESGGGLVQAGGSLRLTCAASGRIAWYRQAPGKERELVAAITSGDRTNYADSVKRRFTISRDNAKNTVYFQMNSLKPEDTAVYYCATEPSWYHGFIDPRGYWGQGTQVTVSS,low polyreactivity
6,QVQLVESGGGLVQAGGSLRLTCAASGRICSNYAMGWYRPARGKERELLAAITVIGGRTYYADSVKGRFTISRDNPKNTVYLHMNSPKPEDTAVYYCAATPRRPWFYGSDYWGQGTQVTVSS,high polyreactivity
7,QVQLVESGGGLVQAGGSLRLTCAASGRIFDGYAMGWYRQPPRKERELVAAISSRGGRTYYADSVKGRFTISRDNAKNTVYLQMNSLKPEDTAVYYCAADDPYGEGDYWGQGTQVTVSS,low polyreactivity
8,QVQLVESGGGLVQAGGSLRLTCAASGRIFGPYVLGWYRQAPGKERELVAAISTSGTSTYYADSVKGRFTISRDNAKNTVYLQMNSLKPEDTAVYYCAKRSGARHRLMDYWGQGTQVTVSS,low polyreactivity
9,QVQLVESGGGLVQAGGSLRLTCAASGRIFGSYAMGWYRQAPGKERELVAAITRRGGSTYYADSVKGRFTISRDNAKNTVYLQMNSLKPEDTAVYYCAPERTSAYDYWGQGTQVTVSS,high polyreactivity
10,QVQLVESGGGLVQAGGSLRLTCAASGRIFLINAMGWYRPAPGKERDLVATISRSGASTDYADSVKGRFTISRDNAKYIVYLQMKSMKPEDTAVYYCNAKVYKRRVVPYDYWGQGSQVTVSS,high polyreactivity
11,QVQLVESGGGLVQAGGSLRLTCAASGRIFNTYAMGWYRQAPGKERELVAAITRSAGRTYYADSVKGRFTISRDNAKNTVYLQMNSLKPEDTAVYYCNAEGSSVLTGYCGYPPYWDTYDYWGQGTQVTLSS,low polyreactivity
12,QVQLVESGGGLVQAGGSLRLTCAASGRIFSGYAMGWYRQEPGKEREFVASISTSGARTYYADSVKGRFTISRDNAKNTVYLQMNRLKPEDTAVYYCAKVIRWISYRGWYDYWGQGTQVTVSS,high polyreactivity
13,QVQLVESGGGLVQAGGSLRLTCAASGRIFSRNAMGWYRQAPGKERELVAAISSSGGSTSYADSVKGRFTISRDNAKNTVYLQMNSLKPEDTAVYYCAADSYPAYLGFVGFDYWGQGTQVTVSS,low polyreactivity
14,QVQLVESGGGLVQAGGSLRLTCAASGRIFSYNAMGWYRQAPGKERELVAAITGGGSTNYADSVKGRFTISRDNAKNTVFLQMNSLKPEDTAVYYCAARSWSYKYWGQGTQVTVSS,high polyreactivity
15,QVQLVESGGGLVQAGGSLRLTCAASGRPFGKNGMGWYRQAPGKEREWVAAISLSGGSTYYADSVKGRFTISRDYAKNTVYLQMNSLKPEDTAVYYCAAYGIRGPVYQYYFWGQGTQVTVSS,low polyreactivity
16,QVQLVESGGGLVQAGGSLRLTCAASGRTFAWYAMGWYRQAPGKERELVAAISSGGSTYYADSVKGRFTISRDNAKNTVYLQMDSLKPEDTAVYYCAAEWHYIYAYDYWGQGTQVTVSS,low polyreactivity
17,QVQLVESGGGLVQAGGSLRLTCAASGRTFDCYAMGLYRQAPGKERELVAAISSRGGSTYYADSVKGRFTISRDNAKNTVYLQMNSLKPEDTSVYYCAKDLGYRGRYNYWGQGTQVTVSS,low polyreactivity
18,QVQLVESGGGLVQAGGSLRLTCAASGRTFFVYAMGWYRPAPGKERELVASITLSGGSTYYADSVKGRFTISRDNAKNTVYLQMNSLKPEDTAVYYCAKGWSRDNDREREDEYWGQGTQVTVSS,low polyreactivity
19,QVQLVESGGGLVQAGGSLRLTCAASGRTFPRYAMGWYRQAPGKERELVAAINSGGSTYYADSVKGRFTISRDNAKNSVYLQMNSLKPEDTAVYYCAAEGYTLGDGVYWIGPYDYWGQGTQLTVSS,high polyreactivity
20,QVQLVESGGGLVQAGGSLRLTCAASGRTFQYNAMVWYRQAPGKERELVAAISSSGGSTYYADSVKGRFTISRDNAKNTVYLQMNSLKPEDTAVYYCNAYSQSWNFYGDGDYWGQGTQVTVSS,low polyreactivity
